Measurements published in the supplement of paper PMC9170038.

System: MS2 coat protein
Assay: apparent KD of MS2 coat protein; designed switch direction (-1 OFF switch, 1 ON switch): 1; higher = weaker reporter binding
Summary of the method: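 On Illumina chips, designed RNA switches with common flanks were made by stalled E. coli RNA polymerase. Titrations with SNAP-549-labelled MS2 coat protein, doubling from 0.7 or 1.5 nM to 3 µM, were done with no input, with 200 uM small-molecule ligand, or with an oligonucleotide input. Apparent KD is the median per design over clusters, from curve fits of normalised cluster fluorescence.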

[1] = Eterna round: R95, input ligand: FMN 200 uM
[2] = Eterna round: R95, input ligand: microRNA oligo, concentration not stated
[3] = Eterna round: R95, input ligand: none
[4] = input ligand: microRNA oligo, concentration not stated

| Sequence | apparent KD of MS2 coat protein [1] [nM] | apparent KD of MS2 coat protein [2] [nM] | apparent KD of MS2 coat protein [3] [nM] | apparent KD of MS2 coat protein (input ligand: FMN 200 uM) [nM] | apparent KD of MS2 coat protein [4] [nM] | apparent KD of MS2 coat protein (input ligand: none) [nM] |
| --- | --- | --- | --- | --- | --- | --- |
| GGGCCAACGAGCGAGGAUAUGGCCUCGGACACAUGAGGAUCACCCAUGUCGAAAAGGUCAGGAGGCUAGAAGGCGUAAAAUGCCA [Tiqusoor] (puzzle: Same State 2) | 11.7 | 10.8 | 13.1 | – | – | – |
| UCUUGGUUUUUGCUCGUUUUUUGUGUUGAACAUGAGGAUCACCCAUGUAUUGUACAAUCCGAUUUAAUAAUGGUCCG [JMF 50] (puzzle: Sensor for hsa-mir-208a) | 42.5 | 48.4 | 46.4 | – | – | – |
| ACGCAGCUGGGUGAGGAUAUCGGUGGUAAAACAUGAGGAUCACCCAUGUCCGAAGCUCGGACCUCCGAGAAGGCGCCCGGCUGCG [Soinraesar Omei Mod 1] (puzzle: Same State 2) | 5.47 | 5.25 | 5.11 | – | – | – |
| GUAAAACAUGAGGAUCACCCAUGUAAUAAUAUGGGAGGAUAUCAGAAUGUAUGUAUGUAAUGAGAAGGCCUAAAUU [Mat - Same State 1 - Mod of Eli - D75] (puzzle: Same State 1) | 73.4 | 610 | 695 | – | – | – |
| GUUAAACAUGAGGAUCACCCAUGUCAAUGUAGUCGAGGAUAUGGGCAGCUAUGAGGCGUACUAGAAGGCGAAGAGU [Mat - Same State 1 - Mod of JL - D12] (puzzle: Same State 1) | 106 | 196 | 280 | – | – | – |
| UCUUGGUUUUUGCUCGUUUUUUGUGUUGAACAUGAGGAUCACCCAUGUAUUGUACGGUCCGAUUUGAUAGUGGUCCG [JMF 20] (puzzle: Sensor for hsa-mir-208a) | 26.1 | 15.7 | 27 | – | – | – |
| AAGUUAAGCUUUUUGUUCUGCCUAUUCUGACAUGAGGAUCACCCAUGUGGUCGAACGACUACGUGUGUAGUUGAGAU [JR_SHM208A_Sub030] (Eterna round: R96, puzzle: Sensor for hsa-mir-208a) | – | – | – | 493 | 341 | 550 |
| GCGAAAGCGGUAGGAUAUCUAGGAUAUGGGAAGACCUAAGGUUGGAAGUCACUUCACCCAGAAGGAGAGAAGGACACCGAAAGG [pwkr ssNG2 2FMN + F9.2] (Eterna round: R96, puzzle: Same State NG 2) | – | – | – | 36.6 | 113 | 134 |
| GCUCGCACGAUGACCCACAUGAGGAUCACCCAUGUGCUUGGGCAGGAUAUCUAGAUUAAGGAUGUAGAGAAGGGUUGAGCGAGC [SameState NG3 #27] (Eterna round: R96, puzzle: Same State NG 3) | – | – | – | 308 | 113 | 230 |
| AGAGAACAUGAGGAUCACCCAUGUGGGAGAGGCAUAGGAUAUAGAGGAGAGAGCGAGGAACUAGAAGGAUGAUGGA [JR_SS1_Sub080] (puzzle: Same State 1) | 47.3 | 70.7 | 91.3 | – | – | – |
| UGAAUAGUGAUAGGAUAUACAUGAGGAAUCCUCGUAGAAGGAUCAUAACAUGAGGAUCACCCAUGUAGCCGUCGAAAGACGGCA [Mat - Same State NG 1 - JL mod - D58] (Eterna round: R96, puzzle: Same State NG 1) | – | – | – | 200 | 72 | 122 |
| AGGCUCAGCAUGCAGGAUAUAGUCGCUGCGACAUGAGGAUCACCCAUGUGGUGUGAAAGAAAGCGCUAGAAGGGUAAAGUGAGUG [Beeran] (puzzle: Same State 2) | 244 | 467 | 750 | – | – | – |
| UGUGUCAUAGGUUUUUUAGCUCGUCUGAUACAUGAGGAUCACCCAUGUUAUAGCCCUGUGCUUGCGCAGGGCUGAGG [JL shm-2.xx] (puzzle: Sensor for hsa-mir-208a) | 50.2 | 36.6 | 56.7 | – | – | – |
| GGAGCCGGCCUAGGAUAUUUCAUAAUUAAACAUGAGGAUCACCCAUGUAGGCCAGAAGGCCUUGGGAAGAAGGAGGUCGGCUCC [Loop Effect - U26,U27] (Eterna round: R96, puzzle: Same State NG 2) | – | – | – | 12.5 | 39 | 82.3 |
| GGUCGGACCUACAUGAGGAUCACCCAUGUUCCGGAAACGGCACAGGAUAUCUGUCCGAAAAGGUCAGAGAAGGGUGAACCGACC [Fiskers NG3ss - 75] (Eterna round: R96, puzzle: Same State NG 3) | – | – | – | 1000 | 508 | 1880 |
| CAUCUCCCUUUUACAUGAGGAUCACCCAUGUUUUCAUAUUGAGAGGAUAUCGUAUUUGGAAACAUCGAGAAGGCUCAUUUGUAU [JR_SSNG3_Sub073] (Eterna round: R96, puzzle: Same State NG 3) | – | – | – | – | 345 | – |

| Sequence | apparent KD of MS2 coat protein [1] [nM] | apparent KD of MS2 coat protein [2] [nM] | apparent KD of MS2 coat protein [3] [nM] | apparent KD of MS2 coat protein (input ligand: FMN 200 uM) [nM] | apparent KD of MS2 coat protein [4] [nM] | apparent KD of MS2 coat protein (input ligand: none) [nM] |
| --- | --- | --- | --- | --- | --- | --- |
| UUACUCAUGUAAGGAUAUGCAGCCGAAACGGCUGCAGAAGGUACUAUAAUACAUGAGGAUCACCCAUGUAAAAUAUAUAAAGUU [Mat - Same State NG 1 - JL mod - D96] (Eterna round: R96, puzzle: Same State NG 1) | – | – | – | 33.9 | 33.6 | 28.2 |
| CCAUGGUAACAUGAGGAUCACCCAUGUACAAGCUUUUUGCUCGUUUUAUUUAUUAUUAUUAUUAUUAUUAUUAUUAA [Nishu_Seq1] (puzzle: Sensor for hsa-mir-208a version 2) | 33.5 | 105 | 86.6 | – | – | – |
| UGUUGUAUUACAGGAUAUCUAUUAGUUAUAUUUAGAGAAGGGUAUUCACAUGAGGAUCACCCAUGUAUAUACGAGGAAGUUGUG [JMF's solution 91] (Eterna round: R96, puzzle: Same State NG 1) | – | – | – | – | 42.3 | – |
| CGCCCGAAUGAAGGAUAUGGUACAACACGAUGAUCAGAAGGUUAUUAAAGUGGGUGAUGCCGACAUGAGGAUCACCCAUGUUGG [Eternabot solution 40] (Eterna round: R96, puzzle: Same State NG 1) | – | – | – | 53.1 | 60 | 66.9 |
| CGGUGAGAGACAGGAUAUCGAGCCUAACGAGGCCGAGAAGGGUCGCCCGAAGCGACCGACAUGAGGAUCACCCAUGUAGAAAGA [Eternabot solution 21] (Eterna round: R96, puzzle: Same State NG 1) | – | – | – | 34.2 | 30 | 40.4 |
| GACAAUCUAUCUGAGGAUAUCAUGAGAAUAACAUGAGGAUCACCCAUGUGCAGGAAAACUGCAUAUGAGAAGGCAGAUAGAUUGA [Mat - Same State 2 - Mod - D15] (puzzle: Same State 2) | 48.2 | 567 | 603 | – | – | – |
| AGCGUCCACACAGGAUAUCACCUGCACUGCAGGUGAGAAGGGUGACCGGUGCGCAAUAACGACAUGAGGAUCACCCAUGUAAAA [Vegea] (Eterna round: R96, puzzle: Same State NG 1) | – | – | – | 775 | 38.3 | 143 |
| ACAAGACAUGAGGAUCACCCAUGUAUAAAUUACACAGGAUAUCGGCGGACCGCACCCGCACGAGAAGGGUGACUUC [Eszaleer] (puzzle: Same State 1) | 472 | 34.1 | 24.7 | – | – | – |
| AGAUGUUAAUUAGGAUAUGGUCACAUGAGGAUCACCCAUGUAACGAAGAUACGAUGUGGUCAAGACUAGAAGGGAUCGCUAACA [SameState NG2 #73] (Eterna round: R96, puzzle: Same State NG 2) | – | – | – | 40.5 | 47.4 | 55.3 |
| CUUAUUAAUGCAGGAUAUGAUUAACAUGAGGAUCACCCAUGUGGUGUUGUGAGUAAGGAGAGUGAUCAGAAGGGCAUUUUUUUU [JMF's solution 41] (Eterna round: R96, puzzle: Same State NG 2) | – | – | – | 711 | 410 | 656 |
| GUUACAUGAGGAUCACCCAUGUAUGUGUGGGAGUAAGUGUCUUAGGAUAUCUAUUAUUAAAAUUAAGAGAAGGAAGAUUGUUGU [JMF's solution 18] (Eterna round: R96, puzzle: Same State NG 3) | – | – | – | 115 | 98.1 | 103 |
| GUUACAUGAGGAUCACCCAUGUAUGUGUGGGAGUAAGUGUCUUAGGAUAUCUAUGGUUUAAUUUAAGAGAAGGAAGAUUGUUGU [JMF's solution 72] (Eterna round: R96, puzzle: Same State NG 3) | – | – | – | 111 | 73.9 | 96.6 |
| AAGCUCGUGUGAGGAUAUGCCGCCGUUUCGGCUGCAGAAGGUGCUACGUUACAUGAGGAUCACCCAUGUCUCUGUUGUUUCGUU [salish99_SSNG1_r04_951] (Eterna round: R96, puzzle: Same State NG 1) | – | – | – | 18.7 | 15.9 | 20.8 |
| AAAGAAAACGCAGGAUAUCCCGGAAUGGAAACGGGAGAAGGGUGACCGGUACAUGAGGAUCACCCAUGUAGAGCACAGGCUCAA [Sousdi] (Eterna round: R96, puzzle: Same State NG 1) | – | – | – | 3380 | 39.4 | 922 |
| GCUCGCACGAUGACCCACAUGAGGAUCACCCAUGUGCGUGGGCAGGAUAUCUAGAUUAAGGAUGUAGAGAAGGGUUGAGCGAGC [SameState NG3 #25] (Eterna round: R96, puzzle: Same State NG 3) | – | – | – | 555 | 136 | 302 |
